Experimental data: the supplement of paper PMC9170038

System: MS2 coat protein
Experiment: apparent KD of MS2 coat protein; designed switch direction (-1 OFF switch, 1 ON switch): 1; higher = weaker reporter binding
Procedure, shortened: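 On Illumina chips, designed RNA switches with common flanks were made by stalled E. coli RNA polymerase. Titrations with SNAP-549-labelled MS2 coat protein, doubling from 0.7 or 1.5 nM to 3 µM, were done with no input, with 200 uM small-molecule ligand, or with an oligonucleotide input. Apparent KD is the median per design over clusters, from curve fits of normalised cluster fluorescence.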

[1] = input ligand: microRNA oligo, concentration not stated
[2] = Eterna round: R95, input ligand: FMN 200 uM
[3] = Eterna round: R95, input ligand: microRNA oligo, concentration not stated
[4] = Eterna round: R95, input ligand: none

Sequence	apparent KD of MS2 coat protein (input ligand: FMN 200 uM)	apparent KD of MS2 coat protein [1]	apparent KD of MS2 coat protein (input ligand: none)	apparent KD of MS2 coat protein [2]	apparent KD of MS2 coat protein [3]	apparent KD of MS2 coat protein [4]
UUAUCCUUUUUUUACAUGAGGAUCACCCAUGUUUUUCUUACGUAGGAUAUCGUUGUUUUUUUUUACGAGAAGGACGUAGUAUGU [JR_SSND3_Sub062] (Eterna round: R96, puzzle: Same State NG 3)	0.0358 µM	0.0304 µM	0.0365 µM			
UUAUCGCUUGGAGGAUAUCCAACUAUACUAAUUGGAGAAGGCCAAGCUACAGAGCUAAGCUUGGAAGUCACUUCGAAUCAACAC [pwkr ssNG1 F9.3] (Eterna round: R96, puzzle: Same State NG 1)	0.0332 µM	0.00518 µM	0.0488 µM			
UUAUCUCAGACAUGAGGAUCACCCAUGUGGUUAUGACUUAGACAGGAUAUAGUAGUAUCGAAAUACUAGAAGGGUCAUUUUAUU [JR_SSNG3_Sub021] (Eterna round: R96, puzzle: Same State NG 3)	0.0734 µM	0.0975 µM	0.143 µM			
UUAUCUCAGACAUGAGGAUCACCCAUGUUUUUUUGUCUUUGACAGGAUAUAGUUGUUUCGUUUUACUAGAAGGGUCAUUUUAUU [JR_SSNG3_Sub024] (Eterna round: R96, puzzle: Same State NG 3)	0.0203 µM	0.0208 µM	0.0298 µM			
UUAUCUCUUACAUGAGGAUCACCCAUGUUUUUAUGUCUUAGACAGGAUAUAGUAGUCUCGUUUUACUAGAAGGGUCUUUUUAUU [JR_SSNG3_Sub019] (Eterna round: R96, puzzle: Same State NG 3)	0.0289 µM	0.0398 µM	0.0514 µM			
UUAUUAUUUACAUGAGGAUCACCCAUGUUUUUAUGUCAGAGAUAGGAUAUAGUAGUCUCGUUUUACUAGAAGGAUCUUUUUAUU [JR_SSNG3_Sub084] (Eterna round: R96, puzzle: Same State NG 3)	0.0134 µM	0.0158 µM	0.0199 µM			
UUAUUAUUUACAUGAGGAUCACCCAUGUUUUUAUGUCAGAGAUAGGAUAUAGUUUUCUCGUUUUUCUAGAAGGAUCUUUUUAUU [JR_SSNG3_Sub085] (Eterna round: R96, puzzle: Same State NG 3)	0.0186 µM	0.017 µM	0.0228 µM			
UUCCUACAUGAGGAUCACCCAUGUGACGCCUCGAUAGGAUAUGCGUGUGCCUUGGCGCAUGCAGAAGGGUUGUAGC [JL Aveso mod 9] (puzzle: Same State 1)				0.0392 µM	0.0348 µM	0.0375 µM
UUCUCACAUGAGGAUCACCCAUGUGAGCCUCUGUGAGGAUAUCCGACAUAAUUAAGUGAAGGAGAAGGUACACGAG [Malean] (puzzle: Same State 1)				0.0248 µM	0.0302 µM	0.0195 µM
UUCUUACAUGAGGAUCACCCAUGUGUUGUCGUGGGAGGAUAUCCUUGUUCGGUGGCGUUGGGAGAAGGCCUAUGUU [× ×•×ª×• ×ž×“×™× ×” × ×—×ª-20] (puzzle: Same State 1)					0.0404 µM	
UUGCUCGUGUGAGGAUAUGCCGCCGUUUCGGCUGCAGAAGGUACUAUAAUACAUGAGGAUCACCCAUGUCUCUGUUGUUUCGUG [salish99_SSNG1_r04_932] (Eterna round: R96, puzzle: Same State NG 1)		0.0237 µM				
UUGGUGUAGAUACAGGAUAUGUUGAUUGUAACAUGAGGAUCACCCAUGUAUCUAUGAGAUUAAAUGCAGAAGGGUGCACAUCACU [salish99_ss2_r3_090] (puzzle: Same State 2)				0.209 µM	0.0929 µM	0.276 µM
UUGUAUCGAAAAGGAUAUCAUGGGCAACGGUACUGAGAAGGUUUCGAGCUCGAACGAGCAACAUGAGGAUCACCCAUGUCCGAG [Eternabot solution 50] (Eterna round: R96, puzzle: Same State NG 1)	0.337 µM	0.28 µM	0.212 µM			
